{"source": "patent US20120192294", "tested_on": "Aβ1-42 peptide, untreated (non-nitrated)", "data": [{"substance": "recombinant insulin degrading enzyme (IDE)", "values": [{"measurement": "degradation of Aβ (immunoblot with 6E10 after 2 h incubation)", "result": "Analysis after 2 h of incubation showed decreased degradation of Aβ with increasing concentration of Sin-1"}]}]}
